Laboratory results taken from US20070059304A1 (Pfizer, published 2007).

What was measured:
[1] = target: human TrkC expressed on HEK-293 cells (human) (UniProt Q16288); assay: cell-based or functional assay
[2] = target: human TrkA expressed on HEK-293 cells (human) (UniProt P04629); assay: cell-based or functional assay
[3] = target: human TrkB (full length), expressed on the surface of HEK-293 cells (human, UniProt Q16620 32-822); assay: cell-based or functional assay
[4] = target: T1, rhTrkB-EDC-Fc: recombinant protein that includes the extracellular domain of human TrkB fused to the Fc … (human, UniProt Q16620 32-430); assay: ELISA on coated rhTrkB-EDC-Fc (ED50)
T1 construct: bought (R&D system, Cat. No. 688-TK); also called human TrkB (ELISA); not shown: Fc region of human IgG1
T1 sequence (Q16620 32-430): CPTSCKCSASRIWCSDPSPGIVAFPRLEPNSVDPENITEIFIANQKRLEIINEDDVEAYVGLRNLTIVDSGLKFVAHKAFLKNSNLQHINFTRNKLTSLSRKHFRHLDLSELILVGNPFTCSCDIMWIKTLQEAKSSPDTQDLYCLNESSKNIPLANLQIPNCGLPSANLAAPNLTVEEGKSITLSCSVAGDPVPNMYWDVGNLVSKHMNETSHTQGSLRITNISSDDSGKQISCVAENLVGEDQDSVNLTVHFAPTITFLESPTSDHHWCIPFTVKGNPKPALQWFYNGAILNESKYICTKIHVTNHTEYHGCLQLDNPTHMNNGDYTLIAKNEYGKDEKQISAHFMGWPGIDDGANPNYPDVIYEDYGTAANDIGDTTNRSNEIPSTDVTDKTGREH

[5] = target: T1, rhTrkB-EDC-Fc: recombinant protein that …; assay: competition ELISA: rhTrkB-EDC-Fc binding to coated BDNF

Chain of human TrkB (full length), expressed on the surface of HEK-293 cells (Q16620 other isoform, or with tags, fused parts or gaps limits assumed): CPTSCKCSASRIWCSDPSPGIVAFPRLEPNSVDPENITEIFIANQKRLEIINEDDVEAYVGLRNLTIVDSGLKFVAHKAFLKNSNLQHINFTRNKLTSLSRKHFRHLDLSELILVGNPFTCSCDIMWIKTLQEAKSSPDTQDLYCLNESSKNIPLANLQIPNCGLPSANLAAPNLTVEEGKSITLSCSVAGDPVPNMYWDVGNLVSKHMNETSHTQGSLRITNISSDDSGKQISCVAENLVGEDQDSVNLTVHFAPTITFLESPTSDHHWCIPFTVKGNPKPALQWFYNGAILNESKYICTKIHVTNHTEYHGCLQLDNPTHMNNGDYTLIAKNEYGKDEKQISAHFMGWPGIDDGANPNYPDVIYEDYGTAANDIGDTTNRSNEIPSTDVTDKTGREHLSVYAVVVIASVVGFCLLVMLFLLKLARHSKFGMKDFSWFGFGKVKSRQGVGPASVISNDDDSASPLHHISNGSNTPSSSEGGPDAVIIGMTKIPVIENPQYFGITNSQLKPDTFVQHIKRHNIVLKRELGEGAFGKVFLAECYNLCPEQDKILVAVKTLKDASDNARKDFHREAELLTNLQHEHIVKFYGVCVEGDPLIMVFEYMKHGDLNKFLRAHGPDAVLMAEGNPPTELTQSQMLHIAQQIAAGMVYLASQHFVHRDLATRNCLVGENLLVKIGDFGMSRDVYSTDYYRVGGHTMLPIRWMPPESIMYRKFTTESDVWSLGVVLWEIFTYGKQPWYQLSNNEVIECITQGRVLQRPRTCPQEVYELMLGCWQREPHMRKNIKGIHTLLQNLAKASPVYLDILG
Chain of human TrkC expressed on HEK-293 cells (human) (Q16288 32-839 S70N limits assumed): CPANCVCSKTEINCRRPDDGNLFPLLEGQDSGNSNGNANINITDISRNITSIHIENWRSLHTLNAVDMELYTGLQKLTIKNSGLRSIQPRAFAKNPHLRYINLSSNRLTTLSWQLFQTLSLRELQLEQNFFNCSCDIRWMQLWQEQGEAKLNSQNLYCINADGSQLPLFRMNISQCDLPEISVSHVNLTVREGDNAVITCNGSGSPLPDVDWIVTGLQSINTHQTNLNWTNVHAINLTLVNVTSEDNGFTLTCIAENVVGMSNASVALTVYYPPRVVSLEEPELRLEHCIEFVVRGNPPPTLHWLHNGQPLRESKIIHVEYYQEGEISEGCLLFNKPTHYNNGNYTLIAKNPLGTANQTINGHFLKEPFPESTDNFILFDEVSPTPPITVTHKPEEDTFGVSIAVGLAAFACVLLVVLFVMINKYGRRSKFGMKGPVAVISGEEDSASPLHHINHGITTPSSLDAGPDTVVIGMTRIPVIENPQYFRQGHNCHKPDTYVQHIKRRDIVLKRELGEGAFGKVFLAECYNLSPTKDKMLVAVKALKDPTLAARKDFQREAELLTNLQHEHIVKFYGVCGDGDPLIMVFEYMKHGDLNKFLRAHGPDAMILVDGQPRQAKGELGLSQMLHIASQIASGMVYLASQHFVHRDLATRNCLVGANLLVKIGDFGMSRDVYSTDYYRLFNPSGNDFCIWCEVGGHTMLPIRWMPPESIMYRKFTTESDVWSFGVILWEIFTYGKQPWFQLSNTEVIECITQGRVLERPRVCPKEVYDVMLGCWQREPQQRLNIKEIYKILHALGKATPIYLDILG
Chain of human TrkA expressed on HEK-293 cells (human) (P04629 33-796 limits assumed): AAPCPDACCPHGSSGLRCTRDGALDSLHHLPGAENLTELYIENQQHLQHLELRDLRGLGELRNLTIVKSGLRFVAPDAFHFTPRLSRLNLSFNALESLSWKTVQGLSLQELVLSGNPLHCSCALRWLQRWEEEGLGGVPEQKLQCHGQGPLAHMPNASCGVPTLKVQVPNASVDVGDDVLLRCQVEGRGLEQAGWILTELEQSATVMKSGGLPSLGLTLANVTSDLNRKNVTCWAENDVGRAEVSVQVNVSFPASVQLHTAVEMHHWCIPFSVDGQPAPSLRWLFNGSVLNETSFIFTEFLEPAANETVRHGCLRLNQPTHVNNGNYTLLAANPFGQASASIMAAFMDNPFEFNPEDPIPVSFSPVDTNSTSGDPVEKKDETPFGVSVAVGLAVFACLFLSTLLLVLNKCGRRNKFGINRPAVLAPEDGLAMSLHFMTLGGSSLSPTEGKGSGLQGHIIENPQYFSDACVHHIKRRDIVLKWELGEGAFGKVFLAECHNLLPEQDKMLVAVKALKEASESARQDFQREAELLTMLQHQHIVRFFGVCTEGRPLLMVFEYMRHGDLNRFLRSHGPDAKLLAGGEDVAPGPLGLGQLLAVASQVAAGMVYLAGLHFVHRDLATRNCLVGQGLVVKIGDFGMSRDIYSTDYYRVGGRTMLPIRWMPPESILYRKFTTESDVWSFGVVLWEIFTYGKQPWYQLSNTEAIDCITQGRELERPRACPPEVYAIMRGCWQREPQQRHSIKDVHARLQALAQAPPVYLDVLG

NT-3 (ligand) showed a TrkC luciferase assay: signal at 300 ng/ml NT-3 (fold over basal) [1] of 6.

In the case of NGF (ligand), the TrkA luciferase assay: signal at 300 ng/ml NGF (fold over basal) [2] is reported as 6.

B1: BDNF (ligand, UniProt P23560 129-247, looked up)
chain: HSDPARRGELSVCDSISEWVTAADKKTAVDMSGGTVTVLEKVPVSKGQLKQYFYETKCNPMGYTKEGCRGIDKRHWNSQCRTTQSYVRALTMDSKKRIGWRFIRIDTSCVCTLTIKRGR
In the case of B1, the “luciferase assay, HEK-293 cells expressing rhTrkB: signal at 200 ng/ml BDNF” value [3] is reported as 6.2 fold over basal.

B2: 4C7 (antibody)
chain 1: QVQLVQSGAEVKKPGASVKVSCKASGYTFTNYVILWVRQAPGQGLEWMGYINPYNDGTKYNEKFKGRVTMTRDTSTSTVYMELSSLRSEDTAVYYCARLLKYRRFSYYAIDYWGQGTTVTVSS
chain 2: DIQMTQSPSSLSASVGDRVTITCRASENVYSNLAWYQQKPGKAPKLLIYAASNLQSGVPSRFSGSGSGTDFTFTISSLQPEDIATYYCQHFWGSPFTFGQGTKLEIK
With B2 the “luciferase assay, HEK-293 cells expressing rhTrkB: EC50” value [3] was roughly 0.1 nM, the EC50 [4] was 0.017 nM and the IC50 [5] was 0.3 nM.
